The values below come from CN111690066A.

For assay [1], the target named is 自产IL-4Rα重组蛋白 (in-house human recombinant IL-4Rα, residues 26-232 of NP_000409.1, expressed in 293F cells) (human) (UniProt P24394). Put plainly: indirect ELISA.
The target of assay [2] is 近岸购买的IL-4Rα重组蛋白 (IL-4Rα, Novoprotein, Cat#CS33) (human) (UniProt P24394). Put plainly: indirect ELISA.
The target of assay [3] is IL-4Rα on TF-1 cells (human) (UniProt P24394). Put plainly: cell-based or functional assay.

In general, EC50 refers to the concentration at which the effect is half-maximal.

Regarding Tab1 (dupilumab) (antibody), the EC50 in assay [1] stood at 0.25 nM. Also, the EC50 in assay [2] amounted to 0.25 nM. In assay [3], this substance came in with an EC50 of neutralisation of IL-4-induced TF-1 cell proliferation of 0.18 nM and an EC50 of neutralisation of IL-13-induced TF-1 cell proliferation of 0.073 nM.
